{"source": "paper PMC5389655", "key": {"[1]": {"target": "Escherichia coli core RNA polymerase, assembled into synthetic transcription elongation complexes (TECs) (E. coli) (UniProt P0A8V2)", "sequence (P0A8V2 whole entry, looked up, one chain of several)": "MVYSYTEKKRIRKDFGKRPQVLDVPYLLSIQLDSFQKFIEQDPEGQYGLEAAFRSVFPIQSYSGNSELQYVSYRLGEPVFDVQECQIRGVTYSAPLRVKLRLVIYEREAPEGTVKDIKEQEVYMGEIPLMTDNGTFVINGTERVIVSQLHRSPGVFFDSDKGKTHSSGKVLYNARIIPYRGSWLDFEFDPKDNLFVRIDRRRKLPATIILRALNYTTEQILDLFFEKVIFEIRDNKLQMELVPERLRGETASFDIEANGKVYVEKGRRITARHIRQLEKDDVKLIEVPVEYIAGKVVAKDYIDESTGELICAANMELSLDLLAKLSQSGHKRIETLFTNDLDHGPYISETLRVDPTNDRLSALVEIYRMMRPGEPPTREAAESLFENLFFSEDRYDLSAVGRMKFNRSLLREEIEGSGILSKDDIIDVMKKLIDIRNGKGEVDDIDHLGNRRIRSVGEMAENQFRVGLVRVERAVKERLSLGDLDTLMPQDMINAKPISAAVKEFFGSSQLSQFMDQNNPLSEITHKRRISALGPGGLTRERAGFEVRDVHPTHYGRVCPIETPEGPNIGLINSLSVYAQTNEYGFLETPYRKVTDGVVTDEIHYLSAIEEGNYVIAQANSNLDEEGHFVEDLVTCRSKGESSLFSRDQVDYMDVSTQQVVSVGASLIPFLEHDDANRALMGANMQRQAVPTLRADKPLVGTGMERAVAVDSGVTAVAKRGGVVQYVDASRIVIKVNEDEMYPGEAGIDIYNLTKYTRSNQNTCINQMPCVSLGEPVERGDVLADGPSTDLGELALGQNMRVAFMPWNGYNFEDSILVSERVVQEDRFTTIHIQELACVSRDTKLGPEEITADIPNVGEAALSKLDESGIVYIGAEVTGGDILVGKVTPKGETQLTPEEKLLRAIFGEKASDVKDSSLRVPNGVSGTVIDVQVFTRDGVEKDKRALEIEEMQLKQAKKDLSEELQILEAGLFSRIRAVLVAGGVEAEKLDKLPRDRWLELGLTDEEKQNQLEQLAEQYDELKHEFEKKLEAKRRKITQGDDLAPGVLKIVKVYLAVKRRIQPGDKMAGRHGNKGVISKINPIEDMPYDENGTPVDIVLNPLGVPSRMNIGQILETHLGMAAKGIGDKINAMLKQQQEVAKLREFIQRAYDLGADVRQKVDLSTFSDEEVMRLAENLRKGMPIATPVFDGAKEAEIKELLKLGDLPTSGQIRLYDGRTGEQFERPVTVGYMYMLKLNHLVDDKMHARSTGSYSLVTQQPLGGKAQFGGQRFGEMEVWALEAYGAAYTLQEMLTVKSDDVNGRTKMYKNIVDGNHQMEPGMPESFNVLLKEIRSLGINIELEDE"}, "[2]": {"target": "Escherichia coli core RNA polymerase, assembled into synthetic transcription elongation complexes (TECs) (E. coli) (UniProt P0A8V2)", "experiment": "native gel or EMSA"}, "[3]": {"target": "Escherichia coli core RNA polymerase, assembled into synthetic transcription elongation complexes (TECs) (E. coli) (UniProt P0A8V2)", "experiment": "native gel or EMSA", "remark": "listed apart in the source"}, "[4]": {"target": "Escherichia coli core RNA polymerase, assembled into synthetic transcription elongation complexes (TECs) (E. coli) (UniProt P0A8V2)", "experiment": "[…]) at 10 nM, […]"}}, "data": [{"substance": "Escherichia coli σ^38 subunit (stationary phase and stress response σ factor) (from UniProt P13445 1-330) (natural protein)", "values": [{"measurement": "Kd from pausing efficiency in the transcription assay on the '-TG' TEC variant", "setting": "[1]", "result": 525, "unit": "nM"}, {"measurement": "Kd", "setting": "[2]", "result": 900, "unit": "nM"}, {"measurement": "Kd", "setting": "[3]", "result": "> 10000", "unit": "nM"}, {"measurement": "Kd", "setting": "[4]", "result": 330, "unit": "nM"}]}]}
